Here are results for three substances from publication PMC9859758.

Bounds are passed on as bounds.

Assay [1] addresses His-tagged Naumovozyma castellii Kar9 N-terminal domain (NcKar9N, residues 1-410), wild type (Naumovozyma castellii). Put plainly: SEC-MALS; 20 mM Tris-HCl pH 7.5, 150 mM NaCl, 1 mM dithiothreitol; S-200 10/300 column; 30 μl of 200 μM protein injected. On the technique in general: In gel filtration, larger molecules generally elute earlier.
In assay [2] the target is His-tagged NcKar9N-γ^− (Tyr363Ala/Arg364Ala) (Naumovozyma castellii). The assay is described as follows: SEC-MALS; 20 mM Tris-HCl pH 7.5, 50 mM NaCl, 1 mM dithiothreitol; S-200 10/300 column; 30 μl of 200 μM protein injected.
Assay [3] concerns the target His-tagged NcKar9N-β^− (Arg233Ala/Ile237Ala) (Naumovozyma castellii). The assay is described as follows: SEC-MALS; 20 mM Tris-HCl pH 7.5, 150 mM NaCl, 1 mM dithiothreitol; S-200 10/300 column; 30 μl of 200 μM protein injected.
Assay [4] has the same target. Put plainly: SEC-MALS; 20 mM Tris-HCl pH 7.5, 50 mM NaCl, 1 mM dithiothreitol; S-200 10/300 column; 30 μl of 200 μM protein injected.

On to “His-tagged Naumovozyma castellii Kar9 N-terminal domain (NcKar9N, residues 1-410), wild type (domain or fragment)”, for which, in assay [1], the stoichiometry N – broadly, the number of molecules, sites or subunits per partner or assembly – is 2.
As to “His-tagged NcKar9N-γ^− (Tyr363Ala/Arg364Ala) (domain or fragment)”, the stoichiometry N in assay [2] is under 4.
“His-tagged NcKar9N-β^− (Arg233Ala/Ile237Ala) (domain or fragment)”: the stoichiometry N in assay [3] and in assay [4] was 2 in each case.
